From US20040002124A1 come the findings set out here.

Assay [1] addresses α6β1 integrin on human cells (human) (UniProt P23229). Put plainly: cell-based or functional assay.
Assay [2] has as its target αVβ3 integrin on cells (human) (UniProt P06756). As to the kind of experiment: cell-based or functional assay.

Sequence of α6β1 integrin on human cells (human) (P23229 24-1130, chain 1 of 2): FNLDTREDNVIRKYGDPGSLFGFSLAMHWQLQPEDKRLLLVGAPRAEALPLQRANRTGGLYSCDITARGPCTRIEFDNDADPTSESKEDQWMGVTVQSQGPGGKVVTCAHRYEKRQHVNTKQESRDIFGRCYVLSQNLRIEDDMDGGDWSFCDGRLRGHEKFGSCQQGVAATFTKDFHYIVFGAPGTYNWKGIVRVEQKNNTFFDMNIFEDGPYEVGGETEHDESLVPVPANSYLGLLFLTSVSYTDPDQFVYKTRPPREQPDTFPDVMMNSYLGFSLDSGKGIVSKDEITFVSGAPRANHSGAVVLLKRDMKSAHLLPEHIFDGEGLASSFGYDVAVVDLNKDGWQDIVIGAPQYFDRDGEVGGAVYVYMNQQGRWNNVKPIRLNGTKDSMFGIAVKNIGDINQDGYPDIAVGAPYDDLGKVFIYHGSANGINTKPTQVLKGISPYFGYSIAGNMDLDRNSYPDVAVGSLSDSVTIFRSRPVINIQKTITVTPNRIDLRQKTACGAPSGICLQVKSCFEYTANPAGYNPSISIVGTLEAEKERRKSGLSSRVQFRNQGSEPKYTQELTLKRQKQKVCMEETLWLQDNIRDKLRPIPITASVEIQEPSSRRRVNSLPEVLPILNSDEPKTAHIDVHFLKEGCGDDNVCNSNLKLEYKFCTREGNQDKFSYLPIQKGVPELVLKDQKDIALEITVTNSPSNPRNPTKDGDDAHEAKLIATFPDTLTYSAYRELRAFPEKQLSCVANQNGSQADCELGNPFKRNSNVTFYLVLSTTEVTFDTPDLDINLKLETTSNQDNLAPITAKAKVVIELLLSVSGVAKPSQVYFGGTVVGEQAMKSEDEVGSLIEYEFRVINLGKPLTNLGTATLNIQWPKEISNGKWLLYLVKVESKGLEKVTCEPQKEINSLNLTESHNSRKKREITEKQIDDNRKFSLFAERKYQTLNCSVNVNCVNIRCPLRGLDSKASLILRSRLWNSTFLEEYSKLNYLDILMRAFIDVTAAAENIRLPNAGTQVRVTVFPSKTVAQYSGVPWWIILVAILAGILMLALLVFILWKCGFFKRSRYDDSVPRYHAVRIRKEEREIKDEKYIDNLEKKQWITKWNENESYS
Sequence of α6β1 integrin on human cells (human) (P05556 21-798, chain 2 of 2, further chain): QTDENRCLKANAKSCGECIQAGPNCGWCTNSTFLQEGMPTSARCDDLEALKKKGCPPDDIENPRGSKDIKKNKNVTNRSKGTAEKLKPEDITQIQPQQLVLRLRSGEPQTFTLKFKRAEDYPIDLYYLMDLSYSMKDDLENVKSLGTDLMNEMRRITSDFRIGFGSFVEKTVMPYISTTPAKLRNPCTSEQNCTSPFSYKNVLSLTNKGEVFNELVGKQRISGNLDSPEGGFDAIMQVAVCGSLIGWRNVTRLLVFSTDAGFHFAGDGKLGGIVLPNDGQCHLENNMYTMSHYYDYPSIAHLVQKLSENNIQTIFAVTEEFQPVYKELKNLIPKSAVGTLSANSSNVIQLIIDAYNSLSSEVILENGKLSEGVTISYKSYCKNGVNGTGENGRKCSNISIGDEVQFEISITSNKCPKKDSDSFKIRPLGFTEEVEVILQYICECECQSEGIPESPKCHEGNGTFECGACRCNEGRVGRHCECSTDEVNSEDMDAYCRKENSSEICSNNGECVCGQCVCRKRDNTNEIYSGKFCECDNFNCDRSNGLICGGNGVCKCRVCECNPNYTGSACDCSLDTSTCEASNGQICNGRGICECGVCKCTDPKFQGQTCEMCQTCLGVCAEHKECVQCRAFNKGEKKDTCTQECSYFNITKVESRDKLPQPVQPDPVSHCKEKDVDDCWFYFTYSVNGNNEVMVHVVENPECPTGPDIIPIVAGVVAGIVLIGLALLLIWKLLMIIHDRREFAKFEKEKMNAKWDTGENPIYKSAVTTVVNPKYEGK
Sequence of αVβ3 integrin on cells (human) (P06756 31-1048, chain 1 of 2): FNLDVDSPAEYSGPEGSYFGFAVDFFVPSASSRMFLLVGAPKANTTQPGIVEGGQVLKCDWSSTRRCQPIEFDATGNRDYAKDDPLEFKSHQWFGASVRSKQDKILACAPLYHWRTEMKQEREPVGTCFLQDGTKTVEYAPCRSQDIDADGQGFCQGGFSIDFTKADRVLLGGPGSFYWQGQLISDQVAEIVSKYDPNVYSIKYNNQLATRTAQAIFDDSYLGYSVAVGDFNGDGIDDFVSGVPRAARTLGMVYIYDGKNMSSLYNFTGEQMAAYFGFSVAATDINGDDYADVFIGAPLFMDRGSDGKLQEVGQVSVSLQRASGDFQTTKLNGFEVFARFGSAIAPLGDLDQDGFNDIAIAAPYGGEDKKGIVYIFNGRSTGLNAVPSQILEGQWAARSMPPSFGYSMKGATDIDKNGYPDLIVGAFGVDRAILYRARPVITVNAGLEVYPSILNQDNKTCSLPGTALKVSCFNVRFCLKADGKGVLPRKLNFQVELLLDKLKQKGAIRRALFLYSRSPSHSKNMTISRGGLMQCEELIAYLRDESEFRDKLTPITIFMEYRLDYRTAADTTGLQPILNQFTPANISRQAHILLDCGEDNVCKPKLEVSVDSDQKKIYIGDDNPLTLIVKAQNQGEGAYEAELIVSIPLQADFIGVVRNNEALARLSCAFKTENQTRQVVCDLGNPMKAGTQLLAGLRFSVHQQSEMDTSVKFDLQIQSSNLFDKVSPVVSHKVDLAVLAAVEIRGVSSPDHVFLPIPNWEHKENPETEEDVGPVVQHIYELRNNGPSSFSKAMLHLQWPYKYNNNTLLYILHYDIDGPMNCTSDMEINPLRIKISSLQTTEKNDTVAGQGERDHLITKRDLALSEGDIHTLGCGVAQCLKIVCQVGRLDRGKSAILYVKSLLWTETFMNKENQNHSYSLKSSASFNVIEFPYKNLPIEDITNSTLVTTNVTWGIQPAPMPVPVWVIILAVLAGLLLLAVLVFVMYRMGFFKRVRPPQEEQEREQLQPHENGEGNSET
Sequence of αVβ3 integrin on cells (human) (P05106 27-788, chain 2 of 2, further chain): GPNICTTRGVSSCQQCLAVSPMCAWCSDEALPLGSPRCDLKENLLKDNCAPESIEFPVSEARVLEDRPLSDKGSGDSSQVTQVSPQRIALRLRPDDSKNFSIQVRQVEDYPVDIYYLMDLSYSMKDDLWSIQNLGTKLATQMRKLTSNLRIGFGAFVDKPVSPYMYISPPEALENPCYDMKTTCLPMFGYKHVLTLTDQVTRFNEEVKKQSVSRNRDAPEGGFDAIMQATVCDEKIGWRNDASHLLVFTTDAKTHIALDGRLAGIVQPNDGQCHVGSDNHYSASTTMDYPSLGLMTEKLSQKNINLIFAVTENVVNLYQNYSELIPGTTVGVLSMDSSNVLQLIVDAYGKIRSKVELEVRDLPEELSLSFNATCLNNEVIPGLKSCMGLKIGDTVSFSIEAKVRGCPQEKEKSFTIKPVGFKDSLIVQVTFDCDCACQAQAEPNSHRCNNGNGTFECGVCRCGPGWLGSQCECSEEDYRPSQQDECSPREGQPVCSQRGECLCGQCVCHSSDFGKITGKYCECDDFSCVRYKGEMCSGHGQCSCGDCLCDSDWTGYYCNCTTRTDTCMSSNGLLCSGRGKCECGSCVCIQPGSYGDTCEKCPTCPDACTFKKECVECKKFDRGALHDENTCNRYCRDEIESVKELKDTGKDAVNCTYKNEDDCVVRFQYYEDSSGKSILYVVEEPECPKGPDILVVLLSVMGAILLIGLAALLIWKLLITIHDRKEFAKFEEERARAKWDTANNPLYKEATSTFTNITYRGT

On to “murine Cyr61 (from UniProt P18406 25-379) (ligand)”, for which the inhibition of 1064SK fibroblast adhesion by anti-α6 antibody (20 µg/ml) in assay [1] is 78%. Also, in assay [2], the relative binding capacity of HUVE cells on wild-type Cyr61 (5 µg/ml) after pre-incubation with 40 µg/ml anti-αvβ3 antibody (LM609); no pre-incubation = 100 stood at 42%, the relative binding capacity of HUVE cells on wild-type Cyr61 (5 µg/ml) after pre-incubation with 1 mM RGD peptide; no pre-incubation = 100 amounted to 50% and the relative binding capacity of HUVE cells on wild-type Cyr61 (5 µg/ml) after pre-incubation with 2.5 mM EDTA; no pre-incubation = 100 is 22%.

In assay [1], laminin (ligand) returned a 1064SK fibroblast adhesion to laminin (A620), with anti-α6 antibody (20 µg/ml) of 0.48 A620; a 1064SK fibroblast adhesion to laminin (A620), without anti-α6 antibody of 0.62 A620; an inhibition of 1064SK fibroblast adhesion to laminin by anti-α6 antibody of 22%.
